This is an account of results in publication PMC9712689 (Communications Biology, 2022).

The experiment has as its target T1, RlpA-Δ32·MltF2 complex (MST) (P. aeruginosa PAO1, UniProt Q9X6V6;Q9HZY1, amine reactive RED-NHS dye).
T1 sequence 1: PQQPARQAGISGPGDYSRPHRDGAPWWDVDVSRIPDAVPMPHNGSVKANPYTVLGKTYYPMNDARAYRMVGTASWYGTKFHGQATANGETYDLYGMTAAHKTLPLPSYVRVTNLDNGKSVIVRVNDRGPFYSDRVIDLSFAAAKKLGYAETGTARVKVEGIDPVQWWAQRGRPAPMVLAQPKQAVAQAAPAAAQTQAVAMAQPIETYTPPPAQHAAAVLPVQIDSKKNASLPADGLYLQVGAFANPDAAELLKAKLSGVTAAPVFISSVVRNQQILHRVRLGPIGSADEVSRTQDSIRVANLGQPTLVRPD
T1 sequence 2: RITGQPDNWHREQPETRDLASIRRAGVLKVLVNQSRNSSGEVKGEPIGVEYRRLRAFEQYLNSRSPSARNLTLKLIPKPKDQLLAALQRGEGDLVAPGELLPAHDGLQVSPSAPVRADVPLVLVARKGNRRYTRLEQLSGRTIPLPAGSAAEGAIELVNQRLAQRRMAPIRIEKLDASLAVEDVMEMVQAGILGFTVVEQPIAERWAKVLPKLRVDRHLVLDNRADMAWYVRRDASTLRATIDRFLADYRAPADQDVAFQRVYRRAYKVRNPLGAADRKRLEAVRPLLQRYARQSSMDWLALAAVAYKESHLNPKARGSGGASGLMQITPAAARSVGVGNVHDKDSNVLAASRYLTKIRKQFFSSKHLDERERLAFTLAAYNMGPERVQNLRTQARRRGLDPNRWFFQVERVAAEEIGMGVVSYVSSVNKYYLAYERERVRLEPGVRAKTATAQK
Briefly: MST. The settings on record: both partners purified.

B1: MltF (enzyme, P. aeruginosa PAO1, UniProt Q9HXN1 33-490, looked up)
chain: PTALERVQKEGVLRVITRNSPATYFQDRNGETGFEYELAKRFAERLGVELKIETADNLDDLYAQLSREGGPALAAAGLTPGREDDASVRYSHTYLDVTPQIIYRNGQQRPTRPEDLVGKRIMVLKGSSHAEQLAELKKQYPELKYEESDAVEVVDLLRMVDVGDIDLTLVDSNELAMNQVYFPNVRVAFDFGEARGLAWALPGGDDDSLMNEVNAFLDQAKKEGLLQRLKDRYYGHVDVLGYVGAYTFAQHLQQRLPRYESHFKQSGKQLDTDWRLLAAIGYQESLWQPGATSKTGVRGLMMLTNRTAQAMGVSNRLDPKQSIQGGSKYFVQIRSELPESIKEPDRSWFALAAYNIGGAHLEDARKMAEKEGLNPNKWLDVKKMLPRLAQKQWYAKTRYGYARGGETVHFVQNVRRYYDILTWVTQPQMEGSQIAESGLHLPGVNKTRPEEDSGDEKL
With B1, the affinity, expressed as Kd, was 0.26 µM.

B2: TypA (natural protein, P. aeruginosa PAO1, UniProt Q9HU67 1-605, looked up)
chain: MIENLRNIAIIAHVDHGKTTLVDKLLKLSGTLDRKEAESERVMDSNDQEKERGITILAKNTAIKWNGYNINIVDTPGHADFGGEVERVMSMVDSVLLVVDAQDGPMPQTRFVTQKAFKAGLRPIVVVNKIDRPGARPDWVIDQIFDLFDNLGATDEQLDFPIVYASALNGIAGLDHEKMDDNMDALFQAIIDHVPAPVVDTEGPFQMQISQLDYNSFLGVIGIGRITRGKVKSNTPVVAISDDGSKRNGRILKIMGHHGLQRVEVAEAEAGDIVCVSGMEELFISDTLCDPQNVEALPPLTVDQPTVSMTFQVNDSPFAGREGKFVTSRNIKERLEKELLHNVALRVEPGDSPEKFKVSGRGELHLSVLIETMRREGFELAVGRPEVVIIEKDGEKQEPYENVTIDIEEQHQGSVMEQMGLRKGDLSNMIPDGKGRVRLEYTIPARGLIGFRNNFLTLTSGTGILTSTFSHYGPIKAGEVSNRQNGVLVSMATGTALTYSLETLQSRGKLFLGPGDEIYEGQLAGINSRDNDLVINPTKGKKLDNMRASGKDEVIALVPPIRFTLEQALEFIADDELVEVTPKSIRLRKKMLNENDRKRYERSKV
B2 gave a Kd of 1.8 µM. This Kd lies about 6.9-fold higher than the previous one.

B3: MltB (enzyme, P. aeruginosa PAO1, UniProt Q9HVX3 1-367, looked up)
chain: SSEPTPPPKPAAKPQARTVISPRPVRQSVQPILPLRGDYANNPAAQHFIDRMVSQHGFNRQQLHDLFAQTQRLDWVIRLMDRQAPTYTPPSGPNGAWLRYRKKFVTPGNVQNGVLFWDQYETDLQRASRVYGVPPEIIVGIIGVETRWGRVMGKTRIIDALSTLSFSYPRRAEFFSGELEQFLLQARKEGTDPLALRGSYAGAMGYGQFMPSSFTKYAVDFDGDGHIDLWNPRDAIGSVANYFKQHGWVSGDRVAVPASGRAPSLEDGFKTLYPLDVLASAGLRPQGPLGGHRQASLLRLDMGRNYQYWYGLPNFYVITRYNHSTHYAMAVWELGKEVDRVRHRSVVRQD
On to B3, for which the Kd was 0.11 µM.

B4: PBP4 (enzyme, P. aeruginosa PAO1, UniProt Q9HZG1 1-476, looked up)
chain: QVNATLPANVQKALQTNKLTGNDLSLVLIPLDGPGNPTYYNADVSVNPASTMKLFTTYAALEMLGPTYQWKTEFYTDGQLKNGVLNGNLYLKGGGDPKLNMEKLWLLMRDLRANGVTKVTGDLVLDRSYFNIPQLPVFNDDGGDDTKPFLVGPDSLLVNLKSVRMVVRTDGNKVNVQMDPPLANVRIDNQVKMTAPATCPAWPKLRFSPVTQFDGTTLLATGQIPQGCSAQTYMSLLDHPGYTAGAVRGIWQELGGSILGKDRQGSVPRNATLIAKAFSPDLVEIIRDINKYSNNTMARQLFLSIGAQFRNSADGDDAQAAQRVVRQWLARKGITAPRLVMENGSGLSRQERVSAREMAAMLQAAWHSPYAAEYISSLPLAGLDGTMRKRLRRTALVGEAHVKTGTLNTVRALAGFSRDASGHNWVVVAILNSPRPWGASAILDQVLLSLHARK
As to B4, the Kd was 0.24 µM.

B5: MltD (enzyme, P. aeruginosa PAO1, UniProt Q9I2T2 1-534, looked up)
chain: QGSGQIKGEAQAKAARPGARAVDVQFNPSWLHTQPGQNAAYNDIWDRMRDGFQLQDAISTNPRIERQRLWFLSNQSFLEQSSARGSLYMHYVVERLEERNMPLELALLPVIESAYNPFALSRSNAAGLWQFIPATGQHFNLRQTNFYDGRRDITASTNAALTYLERLHDMFNGDWMLALAAYNAGEGTVSRAIERNEKLGLPTDYWNLPLPQETQDYVPKLLALSQIVMAPDSYGISLNPINNEPYFQAVRVKRGIDLSSVAALANLDEDELYQLNPAYKRRVTMDGPQQLLVPMEKAAFLTASLDTLKPKEVTAWQQYRVRSGDSLHSIANRYRITVAELKSANRLSSNHLRKGQQLSIPGQIAGGAVKPVYQQLARQASTPARTRSYKVKNGDSLWQIARNNGVDVNDLKRWNGLDKHALKVGQTLKLQGGTQALAARKGNAAGKRDSATYYKVKQGDSMYLIAKRFNVEMKHLQRWNPRSKQALKPGQTLTLYLDTASR
In turn, B5 returned a Kd of 0.22 µM.

B6: MltA (enzyme, P. aeruginosa PAO1, UniProt Q9I4B6 1-385, looked up)
chain: DDGKKEPPPKPAEVTTYNSVPWDALPATSDADLLAGFNAWRSACARLAKDPVWGEPCASATTVAADPTAVRAFLQERMQVYSLRSSSNGDQGLITGYYEPVYHGSLSQGEKTPVPVYGVPDDLVVVALESVYPELKGKRLRGRLEGRVLKPYDDAATIRDNGSSAPVLAWLGDPMDLQFLQIQGSGRIQLEDGRQLRIGYGDQNGHPYKPVGRWLVEQGLVPKEEISMKRIRDWAEANPQRVSELLASNPSFVFFSLRPDSDEGPRGSLNVPLTDGYSVAIDRKVIPLGSLMWLSTTRPDDGSAVVRPVAAQDTGGAIVGEVRADLFWGTGDAAGELAGHMKQPGRLWLLWPKGAPLPAS
In turn, B6 yielded a Kd of 0.035 µM.

B7: AlgO (natural protein)
chain: STAVSVGSAQNSWDSLQPDREQVIASLNVVELLKRHHYNKPPLNDERSAKIYDSYLKMLDPARMYFTAGDIAEFDRWRNRFDDFLKSGDLDPGFVIYKRHLDRLKGRLDYALAMLDKGVDKIDFSVDESLLIDREKAPWAKDTAELDDLWRKKVKDEVLRLKITGKDDKAIQEQLTKRYKNQLSRLKQTRSEDIFQAYINAFAQSYDPHTQYLSPDNAENFDINMSLSLEGIGAVLQSDNDYVKVVRLVPAGPAAKSKQIATSDKIIGVAQGKGEMVDVVGWRLDEVVKLIRGPKGSQVRLEVIPASNAPNDQTSKIVAITREAVKLEDQAAKKSIIKVDHEGRSYKLGVIDLPAFYLDFKAYRAGDPNYKSTTRDVKKLVAELQKDKVDGIVLDLRNNGGGSLQEATELTGLFIDQGPTVLVRNSDGRVDVLNDDEGKAFYTGPLAVLVNRLSASASEIFAGAMQDYHRALILGGQTFGKGTVQTIQPLNHGELKLTLAKFYRVSGQSTQHQGVIPDISYPSIVDDKEIGESALPDSMPWDTIRPVVKDEANPFKPFLAQLKAQHDARTENNADFVYARERLALAQELMKEKTVSLNEAKRRAQQTSIENRQLAMENALRKSKGQEPLKELKREDENALPEEDDKTKPQDDAYLTESGHILLDYLNLNSAVAKH
notes: source: E. coli, purified (Ni-NTA or Strep-Tactin)
Molecule B7 returned a dissociation constant (Kd) of 16 µM.

B8: SltB2 (enzyme, P. aeruginosa PAO1, UniProt Q9I4G6 1-398, looked up)
chain: QPDASSFPSCLAGLQKKAQAQGISADSYERFTSGLQADLSVLDLLDAQPEFTTPLWDYLAGLVDEQRVSDGKAMLAQHDKLLDQVAARYGVDKYTVVAVWGVESDYGRIFGKRPLLTSLSTLSCYGRRQSFFQGEFLATLKLLQAGDIRDAGITGSWAGAFGHTQFMPSTYARIAVDFDGDGRRDLVGSVPDALGSTANYLKKAGWRTGQPWGYEVKVPADFPASLAGRGKRQPLSAWVARGVRRVDGQPLPGGDEKAAILLPAGAQGPAFLVYRNYDAIYSYNAAESYALAIALLSDRLRGGSGLVASWPTDDPGISRLERKQLQKALLARGYDIGEADGLIGTSTRKAIQAEQKRLGLTPADGRAGRKILEALKGAQP
Molecule B8 displayed a Kd of 0.15 µM. This Kd is about 110-fold lower than that of the molecule before.
